Laboratory results: patent publication US12246067 (BIONTECH US, dated 2025)

What was measured:
[1] = molecular target: T1, HLA-A11.01 (human); assay: peptide-HLA class I complex stability, method not described
T1 construct: The assay format and the HLA construct are not described

[2] = molecular target: T2, HLA-A03.01 (human); assay: as above
T2 construct: The assay format and the HLA construct are not described

[3] = molecular target: T3, HLA-A02:01 (human); assay: measured peptide-HLA complex stability; method not detailed
T3 construct: only the allele is given; also called HLA-A02:01 allele protein

[4] = molecular target: T3, HLA-A02:01; assay: measured peptide-HLA affinity; method not detailed

Binder | Measured stability [1] [h] | Measured stability [2] [h] | Measured stability [3] [h] | Measured Affinity [4] [nM]
VVGACGVGK [KRAS, G12C peptide VVGACGVGK] | 10 | 5 |  | 
VVGADGVGK [KRAS, G12D peptide VVGADGVGK] | 3.4 |  |  | 
VVVGADGVGK [KRAS, G12D peptide VVVGADGVGK] | 13 | 2.3 |  | 
VVVGAVGVGK [KRAS, G12V peptide VVVGAVGVGK] | 24.3 | 6.7 |  | 
FLVVVGACGV [KRAS G12C affinity-enhanced peptide FLVVVGACGV] |  |  | 7.4 | 4.2
KMVVVGACGV [KRAS G12C affinity-enhanced peptide KMVVVGACGV] |  |  | 3.8 | 11.9
MLVVVGACGV [KRAS G12C affinity-enhanced peptide MLVVVGACGV] |  |  | 1.7 | 18.2
FMVVVGACGI [KRAS G12C affinity-enhanced peptide FMVVVGACGI] |  |  | 1 | 17
FMVVVGACGL [KRAS G12C affinity-enhanced peptide FMVVVGACGL] |  |  | 0.9 | 85.3
YMVVVGACGV [KRAS G12C affinity-enhanced peptide YMVVVGACGV] |  |  | 6.4 | 7
MMVVVGACGV [KRAS G12C affinity-enhanced peptide MMVVVGACGV] |  |  | 2.1 | 18.9
FMVVVGACGV [KRAS G12C affinity-enhanced peptide FMVVVGACGV] |  |  | 5.4 | 1.1
YLVVVGACGV [KRAS G12C affinity-enhanced peptide YLVVVGACGV] |  |  | 9.3 | 3.9
FLVVVGACGL [KRAS G12C affinity-enhanced peptide FLVVVGACGL] |  |  | 1.4 | 69.4
FLVVVGACGI [KRAS G12C affinity-enhanced peptide FLVVVGACGI] |  |  | 1.4 | 27.8
